This is an account of results in US20120053121A1.

In this test the target is EGF receptor (EGFR) on PC12 cells. Description: cell-based or functional assay.

For “GMP-grade human mature HB-EGF produced in P. pastoris yeast (from UniProt Q99075 63-148) (ligand)”, the percentage of PC12 cells with neurite outgrowth after 3 days, HB-EGF treated amounted to 87.8% and the rate of neurite extension induced by HB-EGF in PC12 cells in the presence of AG1478 (EGF receptor kinase inhibitor) came out at 24.3%.
